Experimental data: patent US8097254

Key:
hen egg lysozyme (hen) = hen egg lysozyme (hen) (UniProt P00698); assay: 125I-labelled (Iodogen) scFv loaded on antigen column, counting of flow-through and eluate
[1] = target: T1, recombinant ED-B domain of fibronectin (UniProt P02751 1266-1356, biotinylated (biotin disulfide N-hydroxysuccinimide ester) in ELISA and ECL competition; Cy5 at the N-terminal extremity in the band-shift analysis); assay: Kd = koff/kon, koff from ECL competition, kon from BIAcore
T1 construct: domain: ED-B; Recombinant fragment made as in Carnemolla et al. 1996; also called biotinylated ED-B; ED-B-biotin

[2] = target: T1, recombinant ED-B domain of fibronectin; assay: competition of scFv-(ED-B-biotin) complex with excess unbiotinylated ED-B, electrochemiluminescent detection (Origen)
[3] = target: T1, recombinant ED-B domain of fibronectin; assay: SPR (BIAcore)
[4] = target: T1, recombinant ED-B domain of fibronectin; assay: SPR (BIAcore), purified scFv

T1 sequence (P02751 1266-1356 limits assumed): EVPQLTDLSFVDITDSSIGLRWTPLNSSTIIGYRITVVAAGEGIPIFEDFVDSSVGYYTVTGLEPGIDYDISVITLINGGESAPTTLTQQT
Chain of hen egg lysozyme (hen) (P00698 19-147): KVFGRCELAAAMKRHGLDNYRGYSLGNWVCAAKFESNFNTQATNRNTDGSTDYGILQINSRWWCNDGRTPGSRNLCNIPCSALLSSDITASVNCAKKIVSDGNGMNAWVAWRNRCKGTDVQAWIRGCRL

Molecule	immunoreactivity (hen egg lysozyme (hen)) [%]	Kd [1] [pM]	koff [2] [s⁻¹]	koff [3] [s⁻¹]	kon [4] [M⁻¹ s⁻¹]
scFv(D1.3)	> 80				
scFv L19 (high-affinity anti-ED-B human scFv antibody fragment) (scFv, in some assays labelled: iodine-125 (Iodogen, or via N-succinimidyl-3-(125I)-benzoate), astatine-211 via m-MeATE, Cy5-NHS, tin (IV) chlorin e6) EVQLLESGGGLVQPGGSLRLSCAASGFTFSSFSMSWVRQAPGKGLEWVSSISGSSGTTYYADSVKGRFTISRDNSKNTLYLQMNSLRAEDTAVYYCAKPFPYFDYWGQGTLVTVSSGDGSSGGSGGASTGEIVLTQSPGTLSLSPGERATLSCRASQSVSSSYLAWYQQKPGQAPRLLIYYASSRATGIPDRFSGSGSGTDFTLTISRLEPEDFAVYYCQQTGRIPPTFGQGTKVEIKDDDSDDDYKDDDDKHHHHHH		54	6e-06	9.6e-05	110000
